What is called Kd is the free concentration of one partner at which half of the binding sites on the other are occupied at equilibrium, for simple one-to-one binding.

One test has as its target SM5-1 antigen. The experiment in a line: Affinity determination with BIAcore. The test is classed as binding, human. Background: Surface plasmon resonance follows binding to a sensor surface in real time, without labels.
In test [1] the test system is human hepatocellular carcinoma cell line QYC. The experiment in a line: Complement-dependent cytotoxicity (CDC), LDH release. The test is classed as cell-based. To be noted: 5% normal human sera, 3-4 h, FIG. 8. The text has this: Antigen recognized by anti-SM5-1 is highly expressed on the surface of human hepatocellular carcinoma cell line QYC. With human complement in the culture fluid, the target cells bound with chimeric antibodies will be lysed by so-called complement dependent cell mediated cytotoxicity (CDC). When there is an over dose of complement (provided by fresh normal human sera), in a certain range, the degree of lysis is related to antibody concentration. Degree of lysis can be determined by detecting lactate dehydrogenase (LDH) released by the lysed cells.
Cell line for bioactivity determination is QYC, which is without any pathogen. […]
QYC cells in the logarithmic growth stage were taken and counted. […]
50 ul supernatant was transferred from each well to corresponding wells in a second 96-well plate, and 50 ul well-mixed LDH test kit reagent was added into the well of the second plate. […] OD was measured with 490 nm as detecting light wave length, and 630 nm as reference wave length.
The results were analyzed with specific analysis software Select2.2 to make auto analysis and calculate standard curve line: horizontal axis stands for the concentration of the standard product and samples, vertical axis stands for optical adsorption, recovery equation as 4-parameter equation, resulting in a “s” curve line. Half effective dosage (ED50) of the standard product and samples were calculated. […]
On the technique in general: LDH leaks from cells whose membrane has failed.

For test [2] the test system is unchanged. The experiment in a line: Therapeutic effect in QYC-bearing nude mice. The test is classed as in vivo. Particulars: 4 mg/kg/week tail vein, after 6 weeks, FIG. 9. As for the experimental part: Chimeric and humanized anti-SM5-1 monoclonal antibodies, and humanized and chimeric anti-CD3 antibodies were tested for their therapeutic effects in QYC bearing nude mice.
Forty female nude mice were inoculated s.c with QYC. After seven weeks, tumor masses reached 0.5 cm in diameter. These mice were randomly divided into 5 groups: 8 mice for PBS group; 8 mice for non-related antibody, chimeric anti-human CD3 mAb, 4 mg/kg; 8 mice for humanized anti-human CD3 mAb, 4 mg/kg; 8 mice for anti-human SM5-1 chimeric mAb, 4 mg/kg; 8 mice for anti-human SM5-1 humanized mAb, 4 mg/kg.
Four mAbs were diluted into final concentration 0.4 mg/ml with PBS. Mice were tail vein injected at 4 mg/kg/week through tail vein, with the control injected equal volume of PBS. According to body weight of nude mice, injection volume was about 250 ul for each nude mouse.
After 6 weeks, size of the tumor mass was measured in each mouse and statistical analyzed. […] These antibodies may function via ADCC and/or CDC.

In the next test the test system is QYC cells. The test is described as follows: In vitro proliferation of QYC cells with chimeric and humanized antibody (PMS:MTS, seven days). The format is cell-based, human. To be noted: serial antibody dilutions, FIG. 6. As for the experimental part: The cell lines used in viability examination was QYC cells which were obtained from Shanghai International Joint Cancer Institute. The QYC cells was cultured in 25 cm^2 flask with RPMI-1640/DMEM (V:V=1:1, GIBCO) containing 10% FBS (GIBCO).
The above cells were digested with 0.05% trypsin and in 0.02% EDTA, and cell number was counted and adjusted to 6×10^4/ml in RPMI-1640/DMEM culture medium containing 10% FCS.
The assay was performed in 96-well plate. The anti-human SM5-1 humanized and chimeric antibody described above were diluted with RPMI-1640/DMEM containing 10% FCS. The antibody to be tested (20 mg/ml) was diluted to […] in serial dilution, with each dilution no more than 10-fold. The antibody were further diluted 1:2 serially with RPMI-1640/DMEM containing 10% FCS for fourteen serial concentrations in 96-well plate, leaving 100 μl/well. Cells (100 μl) were added into each well containing 200 μl various concentration of antibody or 200 μl of RPMI-1640/DMEM containing 10% FCS as control. In order to prevent edge effect of the plate, wells that were at the edge of the plate were not used for the assay but added 200 μl PBS. The plate was incubated at 37° C. with 7% CO2 for seven days.
Color developing reagent PMS:MTS (1:20) (20 μl) was added into each well of the 96-well plate. The plate without the lid was then incubated for 3 h.
The 96-well plate was read at OD490 nm. […]

B1: humanized anti-SM5-1 antibody (ReSM5-1) (antibody, V domains shown)
VH: QVQLVQSGGGVVQPGRSLRLSCKASGYTFTSYVMHWVRQAPGKGLEWIGYIVPYNDGTKYNEKFKGRFTISSDKSKSTAFLQMDSLRPEDTAVYYCARGSRYDWYLDYWGQGTPVTVSS
VL: NIMMTQSPSSLSASVGDRVTITCKSSQSVLYSSNQKNYLAWYQQTPGKAPKLLIYWASTRESGVPSRFSGSGSGTDYTFTISSLQPEDIATYYCHQYFSSYTFGQGTKLQITR
Consider B1, for which binding on SM5-1 antigen was characterised by a dissociation constant (Kd) of 9.31 nM. For the same molecule, the “anti-neoplasm effect via CDC” value in test [1] was “induced the apoptosis and inhibited the growth of tumor cells through the CDC pathway”. The “size of the tumor mass” value in test [2] is given as “effective in controlling the size of the tumor mass”. For the same molecule, the “in vitro proliferation of QYC cells” value with QYC cells is “significantly inhibited in vitro proliferation of QYC cells”.

B2: chSM5-1: mouse-human chimeric antibody with mSM5-1 variable regions (SEQ ID NO:3, 4) and human constant regions (antibody, V domains shown)
VH: EVQLQQSGPELVKPGASVKMSCKASGYTFTSYVMHWVKQKPGQGLDWIGYIVPYNDGTKYNEKFKGKATLTSDKSSSTAYMELSRLTSEDSAVYYCVYGSRYDWYLDVWGAGTTVTVSS
VL: NIMMTQSPSSLAVSAGEKVTMSCKSSQSVLYSSNQKNYLAWYQQKPGQSPKLLIYWASTRESGVPDRFTGSGSGTDFTLTISSVQAEDLAVYYCHQYFSSYTFGGGTKLEIKR
modifications: human constant regions; Mus Musculus
With B2, binding at SM5-1 antigen was put at a Kd of 3.78 nM. The “anti-neoplasm effect via CDC” value in test [1] is “induced the apoptosis and inhibited the growth of tumor cells through the CDC pathway”. Further, the “size of the tumor mass” value in test [2] is on record as “effective in controlling the size of the tumor mass”. Also, the “in vitro proliferation of QYC cells” value with QYC cells was “significantly inhibited in vitro proliferation of QYC cells”.

(Values after patent US20050232926A1, “Antibodies specific for cancer associated antigen SM5-1 and uses thereof” (Oncomax Acquisition Corp., priority 2003, published 2005).)
